The test addresses CD150 (signaling lymphocyte activation molecule, SLAM) on EBV-infected human B cells, Raji cells or IM-9 cells (human) (UniProt Q13291). Kind of test: cell-based or functional assay.

Data on one substance can be found in US20140242694A1.

Sequence of UniProt Q13291 (Q13291 21-335): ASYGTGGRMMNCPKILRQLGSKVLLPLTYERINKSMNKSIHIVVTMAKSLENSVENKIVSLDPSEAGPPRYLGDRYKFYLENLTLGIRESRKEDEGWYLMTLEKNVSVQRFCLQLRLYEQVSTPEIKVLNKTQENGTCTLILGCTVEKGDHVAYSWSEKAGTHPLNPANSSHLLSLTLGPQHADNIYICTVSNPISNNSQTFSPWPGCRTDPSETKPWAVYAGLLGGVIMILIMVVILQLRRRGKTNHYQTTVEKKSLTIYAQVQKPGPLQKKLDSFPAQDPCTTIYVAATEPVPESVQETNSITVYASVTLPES

Regarding “anti-CD150 mAb (clone IPO-3, Affinity Bioreagents) (antibody)”, the IL-1A production, mRNA level (real-time RT-PCR) was determined as 55 fold and the IL-1A production, protein level (ELISA) came to 23 fold.
